Where a SMILES comes first, the peptide text is derived from it. [ ]: non-standard residue; d: D form. The star is where a group is joined. Sta = CC(C)C[C@H](N)[C@@H](O)CC(=O)O; Isovaleryl = CC(C)CC(=O)*
Key:
cathepsin D [1] = experiment: Protease inhibitor confirmation study: pepstatin A added to DSI samples, NR-1 band and Y/L clipping; format: biochemical, Chinese hamster; settings: DSI samples from both facilities, pepstatin A added at 37° C., assessed at day 3 and day 5
Description: Once cathepsin D was identified to be a potential reason for the cleavage of aflibercept, a cathepsin D inhibitor was used to confirm the finding. AEBSF and Aprotinin bovine lung (serine protease inhibitors), E64 and Leupeptin hemisulfate (cysteine protease inhibitors) and pepstatin A (an aspartic protease inhibitor) were evaluated for their ability to inhibit activity of cathepsin D.
To the samples from lots from both the facilities containing DSI at t=0, pepstatin A was added at 37° C. and % of NR-1 band formed was assessed at day 3 and day 5.

cathepsin D [2] = experiment: Stability observation in presence and absence of inhibitor pepstatin A (SE-UPLC HMW, CE-SDS NR1); format: physicochemical, Chinese hamster
Description: Formulated Drug Substance with high (pre-optimization) and low (post-optimization) cathepsin D were blended to achieve various levels of cathD (FIG. 35B). These mixtures were prepared to compare to cathepsin D levels below, at, and above the highest known levels that were observed post-optimized IVT and had acceptable stability performance. The blended material was put on 25° C. stability observation in both the presence and absence of the inhibitor pepstatin A (FIG. 35A).
The Drug Substance Intermediate from two Lots was placed on stability observation at 25° C. in the presence (open triangle) and absence (closed triangle) of the inhibitor pepstatin A for 6 months (FIG. 36).
Samples were placed on 25° C. and 5° C. stability observation in the presence and absence of cathepsin D inhibitor. HMW formation was analyzed by SE-UPLC and NR1 formation was analyzed by CE-SDS.

[3] = Stability study of aflibercept lots at 5° C. and 25° C. (CE-SDS, SE-UPLC); format: physicochemical
Description: This study investigated how a residual HCP can piggy-back through the aflibercept DSI manufacturing process.
Drug substance intermediate (DSI) lots containing aflibercept at two different concentrations (40 mg/ml and 114.3 mg/ml) were evaluated at 5° C. and 25° C.
Using the modified SEC purification, the high concentration DSI lot was purified downstream using SEC. […] (as mentioned in Example 10).
An earlier cut in time for the eluting peak was implemented for the SEC step for the higher concentration DSI lots (FIG. 28) resulting in increased clearance and subsequently lower levels of cathepsin D at FDS (FIG. 29). […] Accelerated stability (25′C for 6 months) was investigated. The cumulative increase in HMW (FIG. 33A) and R1 (FIG. 33B) was represented over that 6 months by calculation of the slope. […] The DSI was analyzed for stability at 25° C. for 6 months. The rate of NR1 species was calculated from T0 to T6 months and plotted against the cathepsin D value obtained by ELISA (FIG. 34A), Activity Assay (FIG. 34B) and Mass Spectrometry (FIG. 34C).

[4] = Mass spectrometry analysis of Y92/L93 clipping in stability lots; format: physicochemical; settings: high concentration (114.3 mg/mL) lot vs low concentration lots, accelerated stability
Description: The analysis was performed by denaturing SEC-MS, which can provide (partial) liquid chromatography separation between the intact receptor domain and NR1 species (with Fc removed) for the successful detection of the low levels of NR1 species. The DS and DSI sample from lots A and B were analyzed using a modified mass analysis (samples 1-7 are representative of both DS and DSI samples from both the lots). The modification made is possible to differentiate the peaks of the receptor domain of aflibercept and truncated aflibercept.
Mass spectrometry analysis further confirmed (3.4×) higher levels of Y92/L93 clipping for the unexpected aflibercept high concentration lot when compared to […] clipping observed for low concentration lots (FIG. 18). Increased NR1 due to cathepsin D cleavage at Y92/L93 of aflibercept was linked to increased aggregate formation (FIG. 19 and FIG. 20).

cathepsin D [5] = experiment: Cathepsin D spike-in into aflibercept DS, Y92L93 clipping / NR-1 band; format: physicochemical, Chinese hamster
Description: Production of the Y92L93 clipping was attempted using cathepsin D. To a sample of aflibercept DS, cathepsin D was added and incubated at 37° C. at pH 6.1. Different concentrations of cathepsin D were evaluated, including 1 ppm, 2 ppm, 5 ppm, and 10 ppm.
Since the failure of cathepsin D to affect the truncation could be due to reaction conditions, the experiment was repeated at a lower pH since cathepsin D needs to be activated by lower pH for conformational switch to mature cathepsin D. Cathepsin-D is an aspartic protease that depends critically on protonation of its active site Asp residue. Along with Asp-protonation, lower pH also leads to conformational switch in mature cathepsin-D. See Briozzo P et al. (1988). Cancer Research. 48 (13): 3688-92.
To test the DS samples with the presence of activated cathepsin D, to a sample from DS at t=0, 100 ppm acidified cathepsin D was added at 37° C. and incubated for 5 hours.
The clipping activity was also observed at neutral condition when acidified […]) was added.
Target sequence in this assay (as listed by the source): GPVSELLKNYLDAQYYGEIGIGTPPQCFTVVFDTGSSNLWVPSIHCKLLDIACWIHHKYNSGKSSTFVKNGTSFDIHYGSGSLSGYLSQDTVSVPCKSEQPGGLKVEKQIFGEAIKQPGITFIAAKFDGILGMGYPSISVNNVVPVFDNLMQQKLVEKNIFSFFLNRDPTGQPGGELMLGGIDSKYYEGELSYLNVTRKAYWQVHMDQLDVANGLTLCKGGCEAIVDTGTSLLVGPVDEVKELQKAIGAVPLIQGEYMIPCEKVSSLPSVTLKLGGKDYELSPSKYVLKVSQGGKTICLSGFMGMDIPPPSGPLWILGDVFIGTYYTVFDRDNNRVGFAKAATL

cathepsin D [6] = experiment: Impact of pH on NR-1 band formation in DSI incubated at 37° C.; format: physicochemical, Chinese hamster
Description: Testing of DSI samples from both facilities A and B for aflibercept production also show similar results.
The impact of pH is so significant that use of different buffers can also show a difference in the Y92L93 clipping observed during the production of aflibercept. For example, citric acid was employed at facility B to achieve a pH of 6.1 and sodium citrate was employed at facility A to achieve a pH of 6.2, despite other conditions remaining the same (i.e., incubation of DSI at 37° C. for 12 days, intermediate time point taken at 3rd and 6th day). While the difference in the pH is 0.1, the effect through cathepsin D based clipping is notable over time (data not shown).
All samples were incubated at 37° C. for 12 days, intermediate time point taken at 3rd and 6th day.
Target sequence in this assay (G3I4W7 65-408 limits assumed): as the sequence (as listed by the source) above

cathepsin D [7] = experiment: Octet HTX interaction analysis of aflibercept and cathepsin D; format: binding, Chinese hamster
Description: FIG. 31 […], wherein cathepsin D was immobilized to the biosensor, while VEGF-Trap was the analyte (A), according to an exemplary embodiment.
Interaction analysis was carried out using OCTET HTX sensorgram.
Since cathepsin D can “piggy back” onto aflibercept during purification of aflibercept, in order to reduce the interactions, use of surfactants was implemented.
Target sequence in this assay (G3I4W7 entry or part of it F138E): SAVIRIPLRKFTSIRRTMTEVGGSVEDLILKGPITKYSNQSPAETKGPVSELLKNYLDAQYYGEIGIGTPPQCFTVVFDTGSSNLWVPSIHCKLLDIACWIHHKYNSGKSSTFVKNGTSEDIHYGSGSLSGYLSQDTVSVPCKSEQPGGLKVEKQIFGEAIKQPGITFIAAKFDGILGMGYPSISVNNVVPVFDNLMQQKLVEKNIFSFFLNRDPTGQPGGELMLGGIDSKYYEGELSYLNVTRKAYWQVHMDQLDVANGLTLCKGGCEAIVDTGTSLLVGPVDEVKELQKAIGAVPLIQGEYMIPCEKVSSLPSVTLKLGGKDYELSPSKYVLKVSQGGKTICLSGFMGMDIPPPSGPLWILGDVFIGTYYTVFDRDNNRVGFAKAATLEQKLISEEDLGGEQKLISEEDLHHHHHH

[8] = DSI from two lots, 25° C., 6 months, pepstatin A present vs absent

Compound | NR-1 band formation (cathepsin D [1]) | Y/L clipping (cathepsin D [1]) | HMW formation (SE-UPLC) (cathepsin D [2]; [8]) | NR1 formation (CE-SDS) (cathepsin D [2]; [8]) | rates of aggregation and fragmentation ([3]; 114.3 mg/mL formulated drug substance (FDS) lot, accelerated stability 25° C. for 6 months) | fragmentation ([3]; 5° C. condition, through the 12-month time point) | LMW levels ([3]; FDS lots after modified SEC purification (earlier cut), 25° C. at 3 months) | levels of Y92/L93 clipping, high concentration lot compared to low concentration lots [4] | Y/L clipping (cathepsin D [5]; DS at t=0, 100 ppm acidified cathepsin D, 37° C., 5 hours) | NR-1 band formation and Y/L cleavage (cathepsin D [5]; aflibercept DS, 0.5-20 ppm acidified cathepsin D, neutral condition, 7 days at 37° C.) | Y/L clipping (cathepsin D [5]; aflibercept DS, 10 ppm Cathepsin D spiked in, pH 6.1, 37° C., 8 days) | Y/L clipping (cathepsin D [5]; aflibercept DS, 100 ppm Cathepsin D spiked in, pH 6.1, 37° C., 8 days) | NR-1 band formation (cathepsin D [6]; DSI sample, pH 4.5 compared to pH 6.3) | NR-1 band formation (cathepsin D [6]; pH 6.45) | 92Y93L clipping (cathepsin D [6]; pH increased to 6.45 by adding sodium citrate, 37° C. for 12 days) | KD of aflibercept-cathepsin D interaction, change (cathepsin D [7]; about 0.003% PS20 (polysorbate 20)) | binding to Cathepsin D (cathepsin D [7]; range of VEGF-Trap concentration) | interaction between aflibercept and cathepsin D (cathepsin D [7]; range of buffer pH) | formation of NR1 (cathepsin D [2]; FDS, 5° C., inactive cathepsin D (inhibitor and/or low temperature), up to 18 months)
CC(C)CC(=O)N[C@H](C(=O)N[C@H](C(=O)N[C@@H](CC(C)C)[C@@H](O)CC(=O)N[C@@H](C)C(=O)N[C@@H](CC(C)C)[C@@H](O)CC(=O)O)C(C)C)C(C)C [pepstatin A] (Isovaleryl-VV[Sta]A[Sta]-OH) | NR-1 band increase stopped | Y/L clipping ceased | reduced HMW formation | reduced NR1 formation |  |  |  |  |  |  |  |  |  |  |  |  |  |  | 
aflibercept |  |  |  |  | increased rates of aggregation and fragmentation | absence of fragmentation | in line with comparators | 3.4 × | led to Y/L clipping of aflibercept | correlation between spiked-in cathepsin D and NR-1 band formation, and Y/L cleavage | Negligible | < 1% | significant NR-1 band | Effectively no NR-1 band is formed | stopped the 92Y93L clipping | about 4 fold | concentration dependent binding | increased with reducing buffer pH | no formation of NR1

Reference: patent US12715905B2, “Methods of characterizing and purifying VEGF receptor fusion protein” (Regeneron Pharmaceuticals, Inc., priority 2023, dated 2026)
